2 variants from IntAct's records for PubMed 23288039 can be followed below.

The chains are these.
B1: Serine/threonine-protein kinase Nek2 (Homo sapiens), P51955 (parent)
chain: MPSRAEDYEVLYTIGTGSYGRCQKIRRKSDGKILVWKELDYGSMTEAEKQMLVSEVNLLRELKHPNIVRYYDRIIDRTNTTLYIVMEYCEGGDLASVITKGTKERQYLDEEFVLRVMTQLTLALKECHRRSDGGHTVLHRDLKPANVFLDGKQNVKLGDFGLARILNHDTSFAKTFVGTPYYMSPEQMNRMSYNEKSDIWSLGCLLYELCALMPPFTAFSQKELAGKIREGKFRRIPYRYSDELNEIITRMLNLKDYHRPSVEEILENPLIADLVADEQRRNLERRGRQLGEPEKSQDSSPVLSELKLKEIQLQERERALKAREERLEQKEQELCVRERLAEDKLARAENLLKNYSLLKERKFLSLASNPELLNLPSSVIKKKVHFSGESKENIMRSENSESQLTSKSKCKDLKKRLHAAQLRAQALSDIEKNYQLKSRQILGMR

The variants in the test derive from B1. The following applies: with apc4_human ANAPC4, Q9UJX5.
Sequence of apc4_human ANAPC4, Q9UJX5 (Q9UJX5 whole entry): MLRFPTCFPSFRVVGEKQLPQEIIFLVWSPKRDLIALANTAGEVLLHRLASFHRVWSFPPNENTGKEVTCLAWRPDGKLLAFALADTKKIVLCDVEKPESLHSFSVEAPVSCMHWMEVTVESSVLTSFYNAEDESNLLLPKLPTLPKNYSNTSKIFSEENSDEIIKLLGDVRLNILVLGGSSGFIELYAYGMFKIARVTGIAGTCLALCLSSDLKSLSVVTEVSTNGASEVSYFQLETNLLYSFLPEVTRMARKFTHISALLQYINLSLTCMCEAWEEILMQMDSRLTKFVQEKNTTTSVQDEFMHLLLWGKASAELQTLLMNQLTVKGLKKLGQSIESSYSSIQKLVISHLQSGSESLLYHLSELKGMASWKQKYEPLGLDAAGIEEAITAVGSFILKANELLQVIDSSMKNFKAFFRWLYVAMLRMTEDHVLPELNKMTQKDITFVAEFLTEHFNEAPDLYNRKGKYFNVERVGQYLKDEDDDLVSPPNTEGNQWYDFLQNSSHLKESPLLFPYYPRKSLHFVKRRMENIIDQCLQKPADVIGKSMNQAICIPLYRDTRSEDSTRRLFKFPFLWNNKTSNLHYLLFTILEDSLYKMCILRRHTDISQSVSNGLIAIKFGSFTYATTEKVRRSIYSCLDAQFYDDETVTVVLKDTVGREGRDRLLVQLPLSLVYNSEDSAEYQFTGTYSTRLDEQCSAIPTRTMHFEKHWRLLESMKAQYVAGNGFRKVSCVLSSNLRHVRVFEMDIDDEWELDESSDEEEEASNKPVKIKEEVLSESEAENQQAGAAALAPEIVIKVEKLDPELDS
On to MPSRAEDYEVLYTIGTGSYGRCQKIRRKSDGKILVWKELDYGSMTEAEKQMLVSEVNLLRELKHPNIVRYYDRIIDRTNTTLYIVMEYCEGGDLASVITKGTKERQYLDEEFVLRVMTQLTLALKECHRRSDGGHTVLHRDLKPANVFLDGKQNVKLGDFGLARILNHDTSFAKTFVGTPYYMSPEQMNRMSYNEKSDIWSLGCLLYELCALMPPFTAFSQKELAGKIREGKFRRIPYRYSDELNEIITRMLNLKDYHRPSVEEILENPLIADLVADEQRRNLERRGRQLGEPEKSQDSSPVLSELKLKEIQAQERERALKAREERLEQKEQELCVRERLAEDKLARAENLLKNYSLLKERKFLSLASNPELLNLPSSVIKKKVHFSGESKENIMRSENSESQLTSKSKCKDLKKRLHAAQLRAQALSDIEKNYQLKSRQILGMR [L313A], for which the “effect of a mutation on the interaction” value is “decreasing interaction”.
For the variant MPSRAEDYEVLYTIGTGSYGRCQKIRRKSDGKILVWKELDYGSMTEAEKQMLVSEVNLLRELKHPNIVRYYDRIIDRTNTTLYIVMEYCEGGDLASVITKGTKERQYLDEEFVLRVMTQLTLALKECHRRSDGGHTVLHRDLKPANVFLDGKQNVKLGDFGLARILNHDTSFAKTFVGTPYYMSPEQMNRMSYNEKSDIWSLGCLLYELCALMPPFTAFSQKELAGKIREGKFRRIPYRYSDELNEIITRMLNLKDYHRPSVEEILENPLIADLVADEQRRNLERRGRQLGEPEKSQDSSPVLSELKLKEIQLQERERAAKAREERLEQKEQELCVRERLAEDKLARAENLLKNYSLLKERKFLSLASNPELLNLPSSVIKKKVHFSGESKENIMRSENSESQLTSKSKCKDLKKRLHAAQLRAQALSDIEKNYQLKSRQILGMR [L320A], the “effect of a mutation on the interaction” value is “decreasing interaction”.
